From PMC2140169

Experiments:
[1] = target: GST-Nup358 fragment 2500-C (amino acid 2500 to the COOH terminus) (UniProt P49792); assay: solid-phase binding assay in microtiter wells
[2] = target: GST-Nup358 fragment amino acids 2550-2837 (region between Ran-binding domains three and four, without FXFG repeats) (UniProt P49792); assay: solid-phase binding assay in microtiter wells

Q: “SUMO-1-modified NΔ419 (RanGAP1 amino acids 420-589) (from UniProt P46061 420-589) (complex)” was tested. Which percent of added protein bound [1] did it give?
A: 20%

Q: And the fold reduction in binding against the domain containing FXFG repeats (2503-2893) [2]?
A: 5 fold
